What all share (assay): SPR
In experiment [1] the target is T1, Recombinant truncated human his-tag ROR1 extracellular domain protein (UniProt Q01973 30-403).
For experiment [2], the target named is T1, Recombinant truncated human his-tag …. This is another data set of the same source.
The target is the same in experiment [3]. The source holds these as a separate data set.

Where two headings read alike, the source gives them in different places.

T1 sequence (Q01973 other isoform, or with tags, fused parts or gaps): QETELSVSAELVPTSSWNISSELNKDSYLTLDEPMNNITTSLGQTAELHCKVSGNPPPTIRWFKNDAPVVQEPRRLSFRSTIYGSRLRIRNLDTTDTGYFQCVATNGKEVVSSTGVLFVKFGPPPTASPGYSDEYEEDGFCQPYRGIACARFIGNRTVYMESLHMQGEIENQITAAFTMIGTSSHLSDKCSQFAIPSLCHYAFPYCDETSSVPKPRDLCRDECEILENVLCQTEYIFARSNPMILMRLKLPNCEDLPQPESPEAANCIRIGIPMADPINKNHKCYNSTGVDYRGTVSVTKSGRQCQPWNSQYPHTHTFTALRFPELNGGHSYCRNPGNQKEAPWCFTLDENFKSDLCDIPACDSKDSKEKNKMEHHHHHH

B1: RO6D8-jlv1011 (antibody, V domains shown)
VH: QVQLVQSGAEVKKPGASVKVSCKASGYTFTSKYYHWVRQAPGQGLEWMGIINPTSGSTSYAQKFQGRVTMTRDTSTSTVYMELSSLRSEDTAVYYCARDSSRYSGWYFDLWGQGTTVTVSS
VL: AIQLTQSPSSLSASVGDRVTITCRASQGVSTEIAWYQQKPGKAPKLLIYAASSLQSGVPSRFSGSGSGTDFTLTISSLQPEDFATYYCQQYYGYPIAFGQGTRLEIK
On to B1, for which the Kd in experiment [1] and in experiment [2] was 0.796 nM each time.

B2: RO6D8-011 (antibody, V domains shown)
VH: QVQLVQSGAEVKKPGASVKVSCKASGYTFTNYYMHWVRQAPGQGLEWMGIINPTSGRTSYAQKFQGRVTMTRDTSTSTVYMELSSLRSEDTAVYYCARDSSSWYSGWYFDLWGQGTTVTVSS
VL: AIQMTQSPSSLSASVGDRVTITCRASQGIRTDLAWYQQKPGKAPKLLIYAASSLQSGVPSRFSGSGSGTDFTLTISSLQPEDFATYYCQQYYGYPIAFGQGTRLEIK
In the case of B2, the Kd in experiment [1] and in experiment [2] was 2.48 nM in each case.

B3: RO6D8-s10 (antibody, V domains shown)
VH: QVQLVQSGAEVKKPGASVKVSCKASGYTFTNYYMHWVRQAPGQGLEWMGIINPSGGSTSYAQKFQGRVTMTRDTSTSTVYMELSSLRSEDTAVYYCARSSRSSYYLWVLDLWGQGTTVTVSS
VL: AIQMTQSPSSLSASVGDRVTITCRASQGVSTEIAWYQQKPGKAPKLLIYAASSLQSGVPSRFSGSGSGTDFTLTISSLQPEDFATYYCQQFNSYPITFGQGTRLEIK
For the molecule B3, the Kd in experiment [3] and in experiment [1] was 2.46 nM each time.

B4: RO6D8wt (antibody, V domains shown)
VH: QVQLVQSGAEVKKPGASVKVSCKASGYTFTNYYMHWVRQAPGQGLEWMGIINPSGGSTSYAQKFQGRVTMTRDTSTSTVYMELSSLRSEDTAVYYCARDSSSWYSGWYFDLWGQGTTVTVSS
VL: AIQMTQSPSSLSASVGDRVTITCRASQDVRAHLAWYQQKPGKAPKLLIYAASSLQSGVPSRFSGSGSGTDFTLTISSLQPEDFATYYCQQFNSYPITFGQGTRLEIK
Regarding B4, the equilibrium dissociation constant (Kd) in experiment [3] and in experiment [1] was 118 nM each time.

(Values after patent publication US20250084163A1 (published 2025).)
